Patent US5543312A, “Pastuerella haemolytica glycoprotease gene and the purified enzyme” (priority 1991, dated 1996)

Columns and labels:
[1] = test system: P. haemolytica glycoprotease; assay: Cleavage of cell surface antigens of surface-125I-iodinated KG1a cells, immunoprecipitation and SDS-PAGE; type: cell-based
Text: In our previous work, we have concentrated on the cleavage of human erythrocyte glycophorin A by the P. haemolytica glycoprotease Udoh et al. 1986. Univ. of Guelph; Abdullah et al. 1988. Proc. Canad. Fed. Biol. Socs.; Abdullah et al. 1990. Biochem. Soc. Trans. This substrate is well-characterized erythrocyte surface O-sialoglycoprotein and is readily available for biochemical analysis. However, it is clear that the physiological targets of this enzyme are not erthrocyte antigens but are probably O-sialoglycoproteins on the surfaces of leukocytes or endothelial cells. SDS-PAGE analysis of immunoprecipitations performed with specific monoclonal antibodies on lysates of surface-^125 I-iodinated KG1a cells, a primitive myeloid/T-lymphois stem cell line Koeffler et al. 1977. Science 200, have shown that the O-sialoglycoprotein cell surface antigens CD34 Civin et al. 1989. Leucocyte Typing IV, Oxford Univ. Press. CD43/leucosialin Killeen et al. 1987. EMBO J.; Pallant et al. 1989. PNAS, CD44/lyaluronic acid receptor Stamenkovic et al. 1989. Cell; Aruffo et al. 1990. Cell and CD45/leucocyte common antigen Thomas et al. 1989. Annu. REv. Immunol.; Pulido et al. 1989. J. Immunol. are all cleaved by the glycoprotease. Although the glycoprotease-sensitive structures contain some N-linked glycans they are all extensively glycosylated with O-linked carbohydrates. However, the N-linked glycoproteins CD18/11^a, 11^b, 11^c /leukocyte integrins Arnaout et al. 1990. Blood, CD71/transferrin receptor Shae et al. 1986. Cell, HLA class I Owen et al. 1980. J. Biol. Chem., and 8A3 antigens Sutherland et al. Blood (in press, Jan. 1991), which lack O-sialo-residues, were resistant to the action of the enzyme.

[2] = test system: P. haemolytica glycoprotease; assay: Removal of CD34 epitopes on KG1/KG1a cells (fluorescence microscopy, flow cytometry, western blotting); type: cell-based
Text: Blood; Katz et al. 1985. Leuk. Res. which detects a sialic acid-dependent epitope on this glycoprotein Watt et al. 1987. Leukaemia; and Sutherland et al. 1988. Leukaemia. We have assessed the ability of this enzyme to remove CD34 epitopes recognized by all seven CD34 antibodies designated by the 4th Leucocyte Antigen Workshop Civin et al. 1989. Leukocyte Typing IV, Oxford Univ. Press. We have shown by fluorescence microscopy, quantitative flow cytometry and western blotting, that sialic acid-dependent epitopes, recognized by antibodies B1.3C5, MY10 Civin et al. 1984. J. Immunol. and 12.8 Andrews et la. 1986. […] Leukaemia and 188.24 Sutherland et al. Leukaemia. In contrast, the sialic acid-independent epitopes by 115.2 Andrew et al. 1986. Blood and TUK3 Civin et al. 1989. Leucocyte Typing IV, Oxford Univ. […] As previously for the cleavage of glycophorin, the enzyme requires the presence of sialyted residues on its substrate and the prior treatment of KGla cells with neuraminidase reduced the ability of the glycoprotease to cleave the ICH3 and 188.24 epitopes Sutherland et al. 1990. Blood (in press). The differential sensitivity of certain CD34 epitopes to cleavage with either neuraminidase and/or glycoprotease establishes 3 classes of epitopes:(Class 1) those like MY 10,B1.3C5 and 12.8 which are removed both by neuraminidase and by the glycoprotease;(Class II) those like ICH3 and 188.24 which are removed only by the glycoprotease; (Class III) those like TUK3 and 115.2

[3] = target: P. haemolytica A1 protease (Mannheimia haemolytica, UniProt P36175); type: biochemical; conditions: FIG. 9; SDS-PAGE autoradiography

B1: CD43/leucosialin: O-sialoglycoprotein cell surface antigen, leukosialin/sialophorin (protein)
chain: STTAVQTPTSGEPLVSTSEPLSSKMYTTSITSDPKADSTGDQTSALPPSTSINEGSPLWTSIGASTGSPLPEPTTYQEVSIKMSSVPQETPHATSHPAVPITANSLGSHTVTGGTITTNSPETSSRTSGAPVTTAASSLETSRGTSGPPLTMATVSLETSKGTSGPPVTMATDSLETSTGTTGPPVTMTTGSLEPSSGASGPQVSSVKLSTMMSPTTSTNASTVPFRNPDENSRGMLPVAVLVALLAVIVLVALLLLWRRRQKRRTGALVLSRGGKRNGVVDAWAGPAQVPEEGAVTVTVGGSGGDKGSGFPDGEGSSRRPTLTTFFGRRKSRQGSLAMEELKSGSGPSLKGEEEPLVASEDGAVDAPAPDEPEGGDGAAP
modifications: O-sialoglycosylated
Cleavage of cell surface antigen by the glycoprotease [1]: cleaved

B2: CD45/leucocyte common antigen: O-sialoglycoprotein cell surface antigen, leukocyte common antigen (protein)
chain: QSPTPSPTGLTTAKMPSVPLSSDPLPTHTTAFSPASTFERENDFSETTTSLSPDNTSTQVSPDSLDNASAFNTTGVSSVQTPHLPTHADSQTPSAGTDTQTFSGSAANAKLNPTPGSNAISDVPGERSTASTFPTDPVSPLTTTLSLAHHSSAALPARTSNTTITANTSDAYLNASETTTLSPSGSAVISTTTIATTPSKPTCDEKYANITVDYLYNKETKLFTAKLNVNENVECGNNTCTNNEVHNLTECKNASVSISHNSCTAPDKTLILDVPPGVEKFQLHDCTQVEKADTTICLKWKNIETFTCDTQNITYRFQCGNMIFDNKEIKLENLEPEHEYKCDSEILYNNHKFTNASKIIKTDFGSPGEPQIIFCRSEAAHQGVITWNPPQRSFHNFTLCYIKETEKDCLNLDKNLIKYDLQNLKPYTKYVLSLHAYIIAKVQRNGSAAMCHFTTKSAPPSQVWNMTVSMTSDNSMHVKCRPPRDRNGPHERYHLEVEAGNTLVRNESHKNCDFRVKDLQYSTDYTFKAYFHNGDYPGEPFILHHSTSYNSKALIAFLAFLIIVTSIALLVVLYKIYDLHKKRSCNLDEQQELVERDDEKQLMNVEPIHADILLETYKRKIADEGRLFLAEFQSIPRVFSKFPIKEARKPFNQNKNRYVDILPYDYNRVELSEINGDAGSNYINASYIDGFKEPRKYIAAQGPRDETVDDFWRMIWEQKATVIVMVTRCEEGNRNKCAEYWPSMEEGTRAFGDVVVKINQHKRCPDYIIQKLNIVNKKEKATGREVTHIQFTSWPDHGVPEDPHLLLKLRRRVNAFSNFFSGPIVVHCSAGVGRTGTYIGIDAMLEGLEAENKVDVYGYVVKLRRQRCLMVQVEAQYILIHQALVEYNQFGETEVNLSELHPYLHNMKKRDPPSEPSPLEAEFQRLPSYRSWRTQHIGNQEENKSKNRNSNVIPYDYNRVPLKHELEMSKESEHDSDESSDDDSDSEEPSKYINASFIMSYWKPEVMIAAQGPLKETIGDFWQMIFQRKVKVIVMLTELKHGDQEICAQYWGEGKQTYGDIEVDLKDTDKSSTYTLRVFELRHSKRKDSRTVYQYQYTNWSVEQLPAEPKELISMIQVVKQKLPQKNSSEGNKHHKSTPLLIHCRDGSQQTGIFCALLNLLESAETEEVVDIFQVVKALRKARPGMVSTFEQYQFLYDVIASTYPAQNGQVKKNNHQEDKIEFDNEVDKVKQDANCVNPLGAPEKLPEAKEQAEGSEPTSGTEGPEHSVNGPASPALNQGS
modifications: O-sialoglycosylated
Cleavage of cell surface antigen by the glycoprotease [1]: cleaved

B3: CD34: O-sialoglycoprotein cell surface antigen, primitive bone marrow stem cell antigen (protein, UniProt P28906 32-385, looked up)
Hematopoietic progenitor cell …: SLDNNGTATPELPTQGTFSNVSTNVSYQETTTPSTLGSTSLHPVSQHGNEATTNITETTVKFTSTSVITSVYGNTNSSVQSQTSVISTVFTTPANVSTPETTLKPSLSPGNVSDLSTTSTSLATSPTKPYTSSSPILSDIKAEIKCSGIREVKLTQGICLEQNKTSSCAEFKKDRGEGLARVLCGEEQADADAGAQVCSLLLAQSEVRPQCLLLVLANRTEISSKLQLMKKHQSDLKKLGILDFTEQDVASHQSYSQKTLIALVTSGALLAVLGITGYFLMNRRSWSPTGERLGEDPYYTENGGGQGYSSGPGTSPEAQGKASVNRGAQENGTGQATSRNGHSARQHVVADTEL
Cleavage of cell surface antigen by the glycoprotease [1]: cleaved | Removal of sialic acid-dependent epitopes recognized by antibodies B1.3C5, MY10 and 12.8 [2]: totally removed | Removal of sialic acid-independent epitopes recognized by ICH3 and 188.24 [2]: totally removed | Sensitivity of sialic acid-independent epitopes recognized by 115.2 and TUK3 [2]: totally resistant | Cleavage of CD34, loss of reactivity with anti-CD34 monoclonal antibody B1.3C5 ([2]; KG1 cells): readily cleaved

B4: glycophorin A: major sialoglycopeptide of the human erythrocyte membrane (protein, UniProt P02724 20-150, looked up)
Glycophorin-A: LSTTEVAMHTSTSSSVTKSYISSQTNDTHKRDTYAATPRAHEVSEISVRTVYPPEEETGERVQLAHHFSEPEITLIIFGVMAGVIGTILLISYGIRRLIKKSPSDVKPLPSPDTDVPLSSVEIENPETSDQ
Hydrolysis of [125I]-glycophorin A forms by P. haemolytica A1 pH 4.5 fraction [3]: total hydrolysis
